Among the data in US20160074469A1 are EC50, cAMP production and Emax (max efficacy expressed as percent of αMSH), cAMP production values, retold here.

The assay has as its target human MC1r (melanocortin receptor type 1) (human) (UniProt Q01726). The experiment in a line: cell-based or functional assay.
Chain of UniProt Q01726 (Q01726 whole entry): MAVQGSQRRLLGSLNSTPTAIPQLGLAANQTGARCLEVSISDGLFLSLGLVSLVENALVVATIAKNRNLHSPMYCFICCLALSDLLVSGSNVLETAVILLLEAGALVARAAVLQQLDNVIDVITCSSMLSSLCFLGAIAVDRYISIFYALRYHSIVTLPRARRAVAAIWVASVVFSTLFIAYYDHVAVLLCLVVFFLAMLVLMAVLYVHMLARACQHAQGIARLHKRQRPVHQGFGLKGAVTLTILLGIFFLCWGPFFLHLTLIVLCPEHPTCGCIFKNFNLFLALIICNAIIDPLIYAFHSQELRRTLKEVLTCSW

B1: Ac(Lys)6-αMSH (Ac(Lys)6-Ser-Tyr-Ser-Met-Glu-His-Phe-Arg-Trp-Gly-Lys-Pro-Val-NH2) (peptide)
peptide: Ac-KKKKKKSYSMEHFRWGKPV-NH2
B1: the EC50, cAMP production came out at 2.12 nM and the Emax (max efficacy expressed as percent of αMSH), cAMP production is 72 % of αMSH.
